{"source": "the nanobody polyreactivity screen of Harvey et al. (2022)", "data": [{"experiment": "yeast display, Sf9 membrane polyspecificity reagent, FACS + sequencing; frameworks hold sequencing errors", "method_in_brief": "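A nanobody's polyreactivity label depends on the gate it was sorted from. Yeast display cells were stained with 10% biotinylated, detergent-solubilized Sf9 membrane reagent for 1 hour at 4 °C, enriched on streptavidin microbeads and sorted by FACS. The low and high (top ~1%) gates were set on anti-HA fluorescence for expression and streptavidin fluorescence for reagent binding.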", "values": [{"sequence": "QVQLVESGGGLVQAGGSLRLSSSASGSIFASNAMGWYRQEPGKERELVAAINSGDSTNYADSVKGRFTISRDNAKNTVYLQMNSLKPEDTAVYYCNAEYRYYQKTPVLYTNVEYDYWGQGTQVTVSS", "polyreactivity (PSR sort gate)": "low polyreactivity"}, {"sequence": "QVQLVESGGGLVQAGGSLRLSCAASGGTFAGNAMGWYRQAPGKERELVAAISKSGAITYYADSVKGRFTISRDNAKNTVYLQMNSLKPEDTAVYYCAARYLSGTSRYYYWGQGTQVTVSS", "polyreactivity (PSR sort gate)": "high polyreactivity"}, {"sequence": "QVQLVESGGGLVQAGGSLRLSCAASGYIFPRYAMGWYRQAPGKERELVAAITGSGGSTYYADSVKGRFTISRDNAKNTVYLQMNSLKPEDTAVYYCNTVYYRSGSQRLDYWGQGTQVTVSS", "polyreactivity (PSR sort gate)": "high polyreactivity"}, {"sequence": "QVQLVESGGGLVQAGGSLRLICAASGRTNGVYVMGLYRQAPGKERELVAAIRKGVGSTYYADSVKGRFTISRDNAKNTVYLQMNSLKPEETAVYYCAADTRHYRYGYWGQGTQVTVSS", "polyreactivity (PSR sort gate)": "low polyreactivity"}, {"sequence": "QVQLVESGGGLVQAGGSLRLSCAASGSTFSSLIMGWYRQAPGKERELVAAISRSGGRTYYADSVKGRFTISRDNAKNTVYLQMNSLIPEDTAVYYCAADYVSVDRIRYGYCGQGTQVTVSS", "polyreactivity (PSR sort gate)": "high polyreactivity"}, {"sequence": "QVQLVESGGGLVQAGGSLRLSCAASGLILNYYTMGSYRQAPGKERELVATISSSTGSTYYADSVKGRFTISRDNAKNTVYLQMNSLKPEDTAVYYCAADHWSYWQIYEYWGQGTQVTVSS", "polyreactivity (PSR sort gate)": "low polyreactivity"}, {"sequence": "QVQLVESGGGLVQAGGSLRLSCAASGSTFLRYAMGWYRQAPGKERELVAGIRYSGGTYYADSVKGRFTISRDNAKNTVYLQMNSLKPEDTAVYYCAAYWKLGGFRYGYWGQGTQVTVSS", "polyreactivity (PSR sort gate)": "high polyreactivity"}, {"sequence": "QVQLVESGGGLVQAGGSLRLSSAASGLTFTYYVMGWYRQAPGKERELVAAITVSGGSTYYADSVKGRFTISRDNAKNTVYLQMNSLKPEDTAVYYCAADAYSGYSDYYWGQGTQVTVSS", "polyreactivity (PSR sort gate)": "low polyreactivity"}, {"sequence": "QVQLVESGGGLVQAGGSLRLSCAASGFIFFKYVMGWYRQAPGKERELVAAISTTGGRTYYADSVKGRFTISRDNAKNTVYLQMNSLKPEDTAVYYCAADYPVWNHGFDYWGQGTQVTVSS", "polyreactivity (PSR sort gate)": "high polyreactivity"}, {"sequence": "QVQLVESGGGLVQAGGSLRLSCAASGRILPSNAMGWYRQAPGKERELVAGITSGGSTDYADSVKGRFTISRDNAKNTVFLQMNSLKPEDTAVYYCNKPFPYYPDGPNGYDYWGQGTQVTVSS", "polyreactivity (PSR sort gate)": "low polyreactivity"}, {"sequence": "QDQLVESGGSLVQAGGSLRLSCASSGSIFKGNVMGCYRQAPGKERELVAAITWSAGSTYYADSVKGRFTISRDNAKNTVYLQMNRLKPEDTAVYYCNTDRYHGVDFDYWGQGTQVSVSS", "polyreactivity (PSR sort gate)": "high polyreactivity"}, {"sequence": "QVQLVESGGGLVQAGGSLRLSCAASGRIFTYNAMGWYRQAPGKERELVAASSRRGGTTYYADSVKGRFTISRDIAKITVYLQMNSLKPEDTAVYYCAARGQYRYSFGDYSWGQGTQVTVSS", "polyreactivity (PSR sort gate)": "high polyreactivity"}, {"sequence": "QVQLVESGGGLVQAGGSLRLSCAASGITFLANAMGWYRQAPGKERELVATITSRGASTYYADSVKGRFTISRDNAKNTVYLQMNSLKPEDSAVYYCAATVRRRYERYNYWGQGTQVTVSS", "polyreactivity (PSR sort gate)": "high polyreactivity"}, {"sequence": "QVQLVESGGGLVQAGGSLRLSCAASGITFWYYTMGWYRQAPGKERELVARITSGSRTSYADSVKGRFTISRDNAKNTVYLQMNSLKPEDTAVYYCAAGSYADRLWSKYNYWGQGTQVTVSS", "polyreactivity (PSR sort gate)": "high polyreactivity"}, {"sequence": "QVQLVESGGGLVQAGGSLRLSCAASGGIFAPYAMGWYRTAPGKERELVAAISSSDGSTYYADSVKGRFTISRDNAQNTVYLHMNSLKTVDTAVYYCAADYREDYGYWGEGTQVTVSS", "polyreactivity (PSR sort gate)": "low polyreactivity"}, {"sequence": "QVQLVESGGGLVQAGGSLRLSCAASGSIFDDYAMGGYRQAHGKERELVAAISSSGTSTYYADSVKGRFTISRDNAKNTVYLQMNCLKPEDTAVYYCAARSAILKSAYLMDYWGQGTQVTVSS", "polyreactivity (PSR sort gate)": "low polyreactivity"}, {"sequence": "QVQLVESGGGLVQAGGSLRLSCAASGSIFVYYAMGWYRQAPGKERELVAAISQRGGRTYYADSVKGRFTISRDNAKNTVYLQMNSLKPEDTAVYYCAADSGPASAGYYYWGQGTQVTVSS", "polyreactivity (PSR sort gate)": "high polyreactivity"}, {"sequence": "QVQLVESGGGLVQAGGSLRLSCAASGRNFSHNAMGWYRQAPGKERELVAAISSRAGRTYADSVKGRFTISRDNAKYTVYLQMNSLKQEDTGVYYCAVRSKGKDVGYWGQGTQVTVSS", "polyreactivity (PSR sort gate)": "high polyreactivity"}, {"sequence": "QVHLVESGGGLVQAGGSLRLSCAASGITFYRYAMGWYRQAPWKERELVAAITVGGRTYYADSVKGRFTISRDNAKNNVYLQMNSLKPEDTAVYYCNVRTLHSVRGYYYWGQGTQVTVSS", "polyreactivity (PSR sort gate)": "high polyreactivity"}, {"sequence": "QVQLVESGGGLVQAGGSLRLSCAASGSTFTVNAMGWYRQAPGKERELVAAIRWSGDSTYYADSVKGRFTISRDNAKNTVYLQMNSLKPEDTAVYYCARDLYWGSYNYWGQGTQVTVSS", "polyreactivity (PSR sort gate)": "low polyreactivity"}, {"sequence": "QVQLVESGGGLVQAGGSLRLSCAASGRIFIPYAMGWYRQAPGKERELVAAISSSGGSTYYADSVKGRFTISRDTAKNTVYLQMNSLKPEDTAVYYCAARLYWGYAYETYSSLFEYDYWGQGTQVTVSS", "polyreactivity (PSR sort gate)": "low polyreactivity"}, {"sequence": "QVQLVESGGGLVQAGGILRLSCAASGSIFRQYARGWYRQAPGKERAFVAAITRRGGSTRYADSVKGRFTISRDNAKNTVYLQMNSLKPEDSAVEYCAARGVPGLHRYYYWGQGTQVTVSS", "polyreactivity (PSR sort gate)": "high polyreactivity"}, {"sequence": "QVQLVESGGGLVQAGGSLRLSCAASGGTFYRYAMGWYRQAPGIERELVAAISGGRGRTYYADSVKGRFTISRDNAKNTVYLQMNSLKPVDTAVYYCSNKPYGAVSGSDYDYWGQGTQVTVSS", "polyreactivity (PSR sort gate)": "high polyreactivity"}, {"sequence": "QDQLVESGGGLVQAGGSLRLSCAASGSIFDIYAMGWYRQAPGKEREMVASIRRRGGSTYYADSVKGRFTISRDNAKNTVYLQMNSLKPEDTAVYDCNARRVWLRTTWTNWPERGYWGQGTQVTVSS", "polyreactivity (PSR sort gate)": "high polyreactivity"}, {"sequence": "QVQLVDSGGGLDQAGGSLPLSCAASGSTFVAYAMGWYRQAPGKERELVADNSTSDGSTRYADSVKGRFTISRDNAKNTVYLQMNSLKPEDTAVYYCAAGSEYYSYGGVRFSFYYWGQGTQVTVSS", "polyreactivity (PSR sort gate)": "low polyreactivity"}, {"sequence": "QVQLVESGGGLVQAGGSLRLSCAASGPIFSDYTMGWYRQAPGKERELVAVISRRGTSTYYADSVKGRFTISRDNAKNTVDLQMNSLKPEDTAVYYCAADDNTYKFYYWGQGTQVTVSS", "polyreactivity (PSR sort gate)": "high polyreactivity"}, {"sequence": "QVQLVESGGGFVQAGGSLRLSCAASGYIFEWNAMGWYRQAPGKERELVASIDSDGSTYYADSVKGRFTISRDNAKNTVYLQMNSLKPEDTAVYYCNARGYTGGEVLAEYDYWGQGTQVTVSS", "polyreactivity (PSR sort gate)": "low polyreactivity"}, {"sequence": "QVQLVESGGGLVQAGGSLRLSCAASGFTFSAYAMGWYRQAPGKERELVAAITRSGGSTYYADSVKGRFTISRDNAKNTVYLQMNSLKPEDTAVYYCAKSDRPWWGYYYQFDYWGQGTQVTVSS", "polyreactivity (PSR sort gate)": "low polyreactivity"}, {"sequence": "QVQLVESGGGLVQAGGSLRLSCAASGSIFYANDMGWYRQAPGKERELVADITSDSTYYADSVKGRFTISRDNAKNTVYLQMNSLKPEDTAVYYCAADVYGVHAPQSDYWTKYDYWGQGTQVTVSS", "polyreactivity (PSR sort gate)": "low polyreactivity"}, {"sequence": "QVQLVESAGGLVQAGGSLRLSCAASGNTFHSNALGWYRQAPGKERELVAAITPSDGDTYYADSVKGRFTISRDNAKNTVYLQMNSLKPEDTAVYYCAAEDDPGEYEYWGQGTQVTESS", "polyreactivity (PSR sort gate)": "low polyreactivity"}, {"sequence": "QVQLVESGGGLVQAGGSLRLSCAASGSTFYRNGMGWYRQAPGKERELVAGIDRSGGSTYYADSVKGRFTISRDNAKNTVYLQMNSLKPEDTAVYYCAAQNGYYPQHDYWGQGTQVTVSS", "polyreactivity (PSR sort gate)": "high polyreactivity"}, {"sequence": "QVQLVESGGGLVQAGGSLRLSCAASGSTFGRYAMGWYRQATGKEMELVAAITRSGGRTYYADSVKGRFTISRDNAKNNVYLQMNSLKPEDTAVYYCAAVGNLYYTSHWQYDYWGQGTQVTVSS", "polyreactivity (PSR sort gate)": "high polyreactivity"}, {"sequence": "QVQLLESGGGLVQAGGSLRLRCASSGSISDWNAMGWYRQAPGKERELVAAISRGGNTNYADSVKGRFTISRDNAKNTVYLQMNSLKPEDTAVYYCAAGHGSLRYNYWGQGTQVSVSS", "polyreactivity (PSR sort gate)": "high polyreactivity"}, {"sequence": "QVQLVETGGGLVQAGGSLRLSCADSGRIFRYYVMGWYRQAPGKERELVAAISRSGGSTYYADSVKGRFTISRDNAKNTVYLQMNSLKPEETAVYYCAKRVSTYGFSGYDYWGQGTQVTVSS", "polyreactivity (PSR sort gate)": "high polyreactivity"}, {"sequence": "QVQLVESGGGLVQAGGSLRLSCAASGFIFYNYAMGWYRQAPGKERELVAAISASGGRTYYADSVKGRFTISRDNAKNTVYLQMNRLKPEETAVYYCNARVNYKGYDYWGQGTQVTVSS", "polyreactivity (PSR sort gate)": "high polyreactivity"}, {"sequence": "QVQLVESGGGLDQAGGSLRLSCAASGFTFRHNTMGGYRQAPGKEREMVAAISIGGRTYYADSVKGRFTISRDNAKNTVYLQMNSLKPEDTAVYYCAKLSRGQSPGYDYWGQGTQVTVSS", "polyreactivity (PSR sort gate)": "high polyreactivity"}, {"sequence": "QVHLVESGGGLVQAGGSLRLSCAASGSTFRLYAMRWNRQAPGKERELVASITFSDSNTSYADSVKGRFTISRDNAKNTVYLQMNSLKPEDTAVYYCAKETSYENVVYTFDYDYWGQGTQVTVSS", "polyreactivity (PSR sort gate)": "low polyreactivity"}, {"sequence": "QFQLVESGGGLVQAGGSLRLSCAASGRIFYYNAMGWYRQAPGKERELVAAITGGGSTNYADSVKGRFTISRDNAKNTVYLQMNSLKPEDTAVYYCAARHYPRNSWGYDYWGQGTQVTVSS", "polyreactivity (PSR sort gate)": "high polyreactivity"}, {"sequence": "QVQLVESGGGLVQAGGSLRLSCAASGITFSFYAMGWYRQAPGKERELVATIDSGGSTNYADSVKGRFTISRDNAKNTVYLQMNSLKPEDTAVYYCAADGVWYYYDMDYWGQGTQVTVSS", "polyreactivity (PSR sort gate)": "low polyreactivity"}, {"sequence": "QLQLVESGGGLVQAGGSLRLSCAASGIIFIYNGMGWYRQAPGKERELVATINWSGGNTYYADSVKGRFTISRDNAKNTVYLQMNSLKPEDTAVYYCAVRGSRYWGYDYWGQGTQVTVSS", "polyreactivity (PSR sort gate)": "low polyreactivity"}, {"sequence": "QFQLVESGGGLDQAGGSLRLSCAASGRTFCNNAMGSYRQAAGKETELFAAISVLGGSTYYADSVKGRFTISRDNAKYTVFLQMNSLKPEDTAVYYCATRSRGWIAPPWQGSDGLYYWGQGTQVTVSS", "polyreactivity (PSR sort gate)": "low polyreactivity"}, {"sequence": "QDQLVESGGGLVQAGGTLRLSCAASGSTFARYAMGWYRQAPGKERELVAAISRRGGSTYYADSVKGRFTISRDNAKITVDLQMNSLKPEDTAVYSCAARYGIISYLEYDYWGQGTQVTVSS", "polyreactivity (PSR sort gate)": "high polyreactivity"}, {"sequence": "QVQLVESGGGLVQAGGSLRLSCAASGITSSYAMGWYRQAPGKERALVAAISRGGSTYYADSVKGRFTISRDNAKNTVSLQMNSLKPEDTAVYYCNKRRYPYGWGQGTQVTVSS", "polyreactivity (PSR sort gate)": "high polyreactivity"}]}]}
